Measurements reported in publication PMC3961690.
Where “and” joins values, the source holds several entries; their conditions need not be identical. Equal entries are not always repeated. Where two headings read alike, the source gives them in different places.

What was measured:
[1] = molecular target: Asp26 (UniProt position 26, KLVVVDFSATW); details: cited from earlier work
[2] = molecular target: Cys32 (UniProt position 32, FSATWCGPCKM); details: reduced human thioredoxin; cited from earlier work
[3] = molecular target: Asp455 (UniProt position 474, KPVMLDLYADW); assay: NMR; details: 298 K, isolated domain, folded
[4] = molecular target: Cys69 (UniProt position 69, FGDYKCPSCKV); details: cited from earlier work
[5] = molecular target: Cys461 (UniProt position 480, LYADWCVACKE); assay: NMR; details: 298 K, isolated domain, folded
[6] = molecular target: Cys30 (UniProt position 49, FFSFFCPHCYQ); details: cited from earlier work
[7] = not stated, 1 mM protein, oxidised (Cys-461-Cys-464 disulfide)
[8] = oxidised (Cys-461-Cys-464 disulfide)
[9] = not stated, 1 mM protein, reduced (dithiol)

Thioredoxin (Trx1), human (Homo sapiens)
pKa ([1]; oxidised human thioredoxin): 8.1
pKa ([1]; reduced human thioredoxin): 9.9
pKa [2]: 6.3

DsbD C-terminal domain, Q488A variant (Q488A-cDsbD) (Escherichia coli; Q488A)
pKa [3, 7]: 7.7 and 7.5
pKa [3, 8]: 8.0 ± 0.3

Disulfide bond formation protein D (BdbD) (Bacillus subtilis)
pKa [4]: less than 4.5

DsbD C-terminal domain, Q488K variant (Q488K-cDsbD) (Escherichia coli; Q488K)
pKa [3, 7]: 8.0
pKa [3, 9]: 7.2 and 7.1
pKa [3, 8]: 8.1 ± 0.2
pKa ([3]; reduced (dithiol)): 7.5 ± 0.4
pKa ([5]; not stated (pH adjusted with 0.1 M DCl or NaOD), 1 mM protein, reduced (Cys-461/Cys-464 dithiol)): 10.3 and 10.5 and 10.4
pKa [5, 9]: 10.9
pKa ([5]; reduced (dithiol)): 10.5 ± 0.2

Thiol:disulfide interchange protein DsbA (Escherichia coli)
pKa [6]: 3.5
